Assay results from paper PMC12474298 (Viruses, 2025).
Where no end group is shown, it is not given here.

Molecular target: mouse importin α2 lacking the importin-β binding domain (mouse IMPα2ΔIBB) (mouse, UniProt P52293 70-529)
Experiment: fluorescence polarisation
Details: both partners purified

B1: HaHV1 UL36h NLS peptide (residues 1491-1500), FITC/Ahx-labelled (peptide)
peptide: ETKKRRRILE
modifications: not fully specified (N-terminus); also: FITC/Ahx-labelled, position not given here
notes: also called HaHV1 NLS; HaHV1-NLS
- Kd: 609 nM
